# According to patent US20220227874A1, “CHIMERIC ANTIGEN RECEPTORS TARGETING EPIDERMAL GROWTH FACTOR RECEPTOR VARIANT III” (published 2022):
# Numbering of substitutions follows the chain as printed.
# B1: 32A10 (antibody, V domains shown)
# VH: QVTLKESGPVLVKPTETLTLTCTVSGFSLSNARMGVSWIRQPPGKALEWLAHIFSTDEKSIRRSLRSRLTLSKDTSKSQVVLTMTNMDPVDTATYFCARDSSNYEGYFDYWGQGTLVTVSS
# VL: EVVMTQSPATLSVSPGERVTLSCRASQSVSSNFAWYQQRPGQAPRLLLYGATTRATGLPGRFSGSGSGTENILTISSLQSEDFAIYFCQQYKDWPFTFGPGSKVDIK
# B2: 21E11 (antibody, V domains shown)
# VH: B1 VH with A32V, L50F, T56S, F96Y, Y110F
# VL: DMVVTQSPATLSVSPGERATLSCRASQSVGSDLAWYQQPPGQSPRLLIYGASTRATGVPARFSGSGSGTDFTLTITSLESEDFAVYYCQQYNDWPFTFGPGTKVDIK
# B3: 49B11 (antibody, V domains shown)
# VH: B1 VH with A32V, L50F, T56S, F96Y
# VL: B2 VL with D1E, V3E, S28N, V29I, P39Q, P40S, S43A, Y49S, A60T, E79Q
# B4: 46E10 (antibody, V domains shown)
# VH: B1 VH with T83I, F96Y
# VL: B1 VL with A9P, T10N, V19A, S30T, A43S, T52S, L58V, I85V
# B5: 12H6 (antibody, V domains shown)
# VH: B1 VH with F96Y
# VL: B1 VL with V19A, S28G, A43S, T52S, L58V
# B6: 19A9 (antibody, V domains shown)
# VH: B1 VH with K5E, L47P, L50F, I61L, R63L, F96Y
# VL: EVVMTQSPATLSVSPGERATLSCRASQSVNRNLAWYQQKPGQAPRLLIFGTSTRATGIPARFSGSGSGTEFTLTIDSLQSEHSGLYYCQQYNDWPFTFGPGTKVDIK
# B7: 11B11 (antibody, V domains shown)
# VH: B1 VH with R33K, L71M, F96Y, A98V
# VL: B1 VL with V3L, V19A, S31T, Y49F, T52S, L58I, D105E
# B8: 21E7 (antibody, V domains shown)
# VH: B1 VH with K5E, L47P, L50F, I61L, R63L, F96Y
# VL: B6 VL with E1D, M4L, R31S, K39N, T51S, R61S, D76N, G84A, L85V
# B9: 20B9 (antibody, V domains shown)
# VH: QVTLKESGPVLVKPTETLTLTCTVSGFSLSNARMGVSWIRQPPGKALEWLGHIFSTDEKSYSTSLRGRITISKDTSRGLVVLTLTNMDPVDTATYYCARDSSNYEGYFDFWGPGFLVTVSS
# VL: EIVMTQSPATLSVSPGERATLSCRVSQSIGANLAWYQQKFGQAPRLLIYGASTRATGIPVRFSGGGSGTEFTLTISSLQSEDFAIYSCQQYIYWPFTFGPGTTVDIK
# B10: 12B2 (antibody, V domains shown)
# VH: B1 VH with A32P, A51G, T56S, I61Y, R63L, T70S, L71I, F96Y, A98V, E105G
# VL: EVVMTQSPATLSVSPGERATLSCRASQSVINNLAWYQQKPGQAPRLLIYGTSTRATDIPARFSGSGSGTEFTLTISSLQSEDFAVYYCQDYNNWPFTFGPGTKVDIK
# B11: 11F10 (antibody, V domains shown)
# VH: QVTLKESGPVLVKPIETLTLTCTVCGFSLSNPRMGVSWIRQPPGKALEWLGHIFSSDEKSYRLFLRSRLSISKDTSKSQVVLTMTNMDPVDTATYYCARDSSDYEGYFDYWGQGTLVTVSS
# VL: EIVMTQSPATLSVSPGERTTLSCRASQSVGSNLAWYQQKPGQAPRLLIYGASTRASGVPARFSGSGSGTEFTLTISSLQSEDFAVYSCQEYNNWPFTFGQGTKVEIK
# B12: 29D5 (antibody, V domains shown)
# VH: B1 VH with A32P, I39L, L50F, I61Y, R62S, R63P, S67G, L71V, M84L, F96Y
# VL: KIVMTQSPATLSVSPGERATLSCRANQIVSSNLAWYQQKPGQAPRLLVFGTSTRATGIPIRFSGSGSGTEFTLTVSSLQSEDFAVYVCQQYNDWPFTFGPGTKVDIK
# B13: 14C11 (antibody, V domains shown)
# VH: B1 VH with S30N, L50F, I61F, R63T, F96Y, T115I
# VL: EIVMTQSPATLSVSPGERATLSCRASQSVSNNLAWYQQKPGQAPRLLIYGASTRATGVPARFSGSDSGTEFSLTISSLQSEDFAVYFCQQYKDWPFTFGPGTKVEIK
# B14: 20E12 (antibody, V domains shown)
# VH: EVNLVESGGGLVKPGGSLRLSCEASGFTFSYAWMSWVRQAPGKGLEWVGRIKSIADGGATDYAAPVRNRFTISRDDSRNTLYLEMHSLKTEDTAVYYCTTIPGNDAFDMWGQGTMVTVSS
# VL: DIVLTQSPLSLSVTPGEPASISCRSSQSLLYSNGKNYLDWFLHKPGQSPQLLIYLGSNRASGVPDRFSGSGSGIDFILKISRVEAEDVGVYYCMQAQQTPITFGQGTRLEIK
# B15: 26B9 (antibody, V domains shown)
# VH: EVQLVESWGVLVKPGGSLRLSCAASGFIFNNAWMSWVRQAPGKGLEWIGRIKSKSDGGTTDYAAPVKDRFTISRDDSKDTLYLQMNGLKTEDTAVYFCTTAPGGPFDYWGQGTLVTVSS
# VL: DIVLTQSPLSLPVTPGEPASISCRSSQSLLHRDGFNYLDWFLQKPGQSPQLLIYLASSRASGVPDRFSGSDSGTDFTLKISRVEAEDVGVYYCMQALQTPITFGQGTRLEIK
# B16: 30D8 (antibody, V domains shown)
# VH: EVQLVESGGGLVKPGGSLRLSCEASGFTFSDAWMSWVRQAPGKGLEWVGRIKSKTDGGTTDYVVPLNGRFIISRDDSRNTLYLQLNNLKTEDTAVYYCTTVPGSYGYWGQGTLVTVSS
# VL: B15 VL with L4M, R32N, D33K, G34R, F35N, S58N, S70G, D71G, L97Q
# B17: 32G8 (antibody, V domains shown)
# VH: B14 VH with A55T, A59V, T60I, F70C, A106D, T114R
# VL: B14 VL
# B18: 34E7 (antibody, V domains shown)
# VH: B14 VH with A55N, A64S, T80M, M115L
# VL: B14 VL with S26T, Y54F, N58I
# B19: 42G9 (antibody, V domains shown)
# VH: B1 VH with V12L, A32P, L50F, I61L, R62K, R63L, D88A, T92S, F96Y, Y110F
# VL: EVVLTQSPATLSVSPGERATLSCRASQSVRSNLAWYQQKSGQAPRLLIYGSTIRATGVPARFSGSGSGTEFTLTISSLQSEDFAVYYCQQYSDWPFTFGPGTKVDIK
# B20: 20G5 (antibody, V domains shown)
# VH: EVQLVESGGDLVKPGGSLRLSCAASGFTFTNAWMSWVRQAPGKGLEWVGRIKSKIDGGTTDYAAPVKGRFIISRDDSKNTLSLQMNSLKTEDTAMYYCTTAPGGPFDYWGQGSLVTVSS
# VL: B15 VL with H31Y, R32S, G34R, F35R, Q50H, A56G, S58Y, D71G, T99I
# Target: T1, EGFRvIII expressed on cells (F98-npEGFRvIII, NCI-H522-EGFRvIII, U87-KO-EGFRvIII) (human)
# Assay: flow cytometry, EGFRvIII expressing cell line against non-expressing cell lines
row,fold MFI over non-expressing cell lines,Binder
1,≥ 10 fold,B1
2,≥ 10 fold,B2
3,≥ 10 fold,B3
4,≥ 10 fold,B4
5,≥ 10 fold,B5
6,≥ 10 fold,B6
7,≥ 10 fold,B7
8,≥ 10 fold,B8
9,≥ 10 fold,B9
10,≥ 10 fold,B10
11,≥ 10 fold,B11
12,≥ 10 fold,B12
13,≥ 10 fold,B13
14,≥ 10 fold,B14
15,≥ 10 fold,B15
16,≥ 10 fold,B16
17,≥ 10 fold,B17
18,≥ 10 fold,B18
19,≥ 10 fold,B19

# Target: T1, EGFRvIII expressed on cells …
# Assay: flow cytometry, F98-EGFRvIII cells; 2nd Ab only 2.3
row,% positive,Binder
1,98.3%,B1
2,98.5%,B2
3,98.5%,B3
4,98.7%,B4
5,98.3%,B5
6,98.1%,B6
7,98.2%,B7
8,98.5%,B8
9,98.3%,B9
10,97.9%,B10
11,98%,B11
12,97.9%,B12
13,98.2%,B13
14,98.5%,B19

# Target: T1, EGFRvIII expressed on cells …
# Assay: flow cytometry, F98-EGFRvIII cells; 2nd Ab only 1.3
row,% positive,Binder
1,97.9%,B14
2,98.5%,B20
3,98.6%,B15
4,98.6%,B16
5,98.6%,B17
6,98.5%,B18

# Target: T1, EGFRvIII expressed on cells …
# Assay: flow cytometry, F98-EGFRvIII cells; 2nd Ab only 322
row,MFI,Binder
1,3980,B14
2,4640,B20
3,5400,B15
4,5160,B16
5,3730,B17
6,4130,B18

# Target: T1, EGFRvIII expressed on cells …
# Assay: flow cytometry, F98-EGFRvIII cells; 2nd Ab only 258
row,MFI,Binder
1,3350,B1
2,3100,B2
3,2980,B3
4,2990,B4
5,3440,B5
6,3100,B6
7,3390,B7
8,3100,B8
9,3420,B9
10,2750,B10
11,3280,B11
12,2830,B12
13,3210,B13
14,3250,B19
